According to IntAct's records for PubMed 19765080:

B1: G protein-activated inward rectifier potassium channel 1 (Rattus norvegicus (Rat)), P63251 (parent)
chain: MSALRRKFGDDYQVVTTSSSGSGLQPQGPGQGPQQQLVPKKKRQRFVDKNGRCNVQHGNLGSETSRYLSDLFTTLVDLKWRWNLFIFILTYTVAWLFMASMWWVIAYTRGDLNKAHVGNYTPCVANVYNFPSAFLFFIETEATIGYGYRYITDKCPEGIILFLFQSILGSIVDAFLIGCMFIKMSQPKKRAETLMFSEHAVISMRDGKLTLMFRVGNLRNSHMVSAQIRCKLLKSRQTPEGEFLPLDQLELDVGFSTGADQLFLVSPLTICHVIDAKSPFYDLSQRSMQTEQFEVVVILEGIVETTGMTCQARTSYTEDEVLWGHRFFPVISLEEGFFKVDYSQFHATFEVPTPPYSVKEQEEMLLMSSPLIAPAITNSKERHNSVECLDGLDDISTKLPSKLQKITGREDFPKKLLRMSSTTSEKAYSLGDLPMKLQRISSVPGNSEEKLVSKTTKMLSDPMSQSVADLPPKLQKMAGGPTRMEGNLPAKLRKMNSDRFT

Assays:
Conditions in all cases: with kapca_bovin PRKACA
[1] = variants of: B1
[2] = variants of: B1; remark: listed apart in the source
[3] = variants of: B1; remark: listed apart in the source
[4] = variants of: B1; remark: listed apart in the source
[5] = variants of: B1; remark: listed apart in the source

Variant | effect of a mutation on the interaction [1] | effect of a mutation on the interaction [2] | effect of a mutation on the interaction [3] | effect of a mutation on the interaction [4] | effect of a mutation on the interaction [5]
MSALRRKFGDDYQVVTTSSSGSGLQPQGPGQGPQQQLVPKKKRQRFVDKNGRCNVQHGNLGSETSRYLSDLFTTLVDLKWRWNLFIFILTYTVAWLFMASMWWVIAYTRGDLNKAHVGNYTPCVANVYNFPSAFLFFIETEATIGYGYRYITDKCPEGIILFLFQSILGSIVDAFLIGCMFIKMSQPKKRAETLMFSEHAVISMRDGKLTLMFRVGNLRNSHMVSAQIRCKLLKSRQTPEGEFLPLDQLELDVGFSTGADQLFLVSPLTICHVIDAKSPFYDLSQRSMQTEQFEVVVILEGIVETTGMTCQARTSYTEDEVLWGHRFFPVISLEEGFFKVDYSQFHATFEVPTPPYSVKEQEEMLLMSSPLIAPAITNSKERHNSVECLDGLDDISTKLPCKLQKITGREDFPKKLLRMSSTTSEKAYSLGDLPMKLQRISSVPGNSEEKLVSKTTKMLSDPMSQSVADLPPKLQKMAGGPTRMEGNLPAKLRKMNSDRFT [S401C] | decreasing interaction | disrupting interaction | – | – | –
MSALRRKFGDDYQVVTTSSSGSGLQPQGPGQGPQQQLVPKKKRQRFVDKNGRCNVQHGNLGSETSRYLSDLFTTLVDLKWRWNLFIFILTYTVAWLFMASMWWVIAYTRGDLNKAHVGNYTPCVANVYNFPSAFLFFIETEATIGYGYRYITDKCPEGIILFLFQSILGSIVDAFLIGCMFIKMSQPKKRAETLMFSEHAVISMRDGKLTLMFRVGNLRNSHMVSAQIRCKLLKSRQTPEGEFLPLDQLELDVGFSTGADQLFLVSPLTICHVIDAKSPFYDLSQRSMQTEQFEVVVILEGIVETTGMTCQARTSYTEDEVLWGHRFFPVISLEEGFFKVDYSQFHATFEVPTPPYSVKEQEEMLLMSSPLIAPAITNSKERHNSVECLDGLDDISTKLPSKLQKICGREDFPKKLLRMSSTTSEKAYSLGDLPMKLQRISSVPGNSEEKLVSKTTKMLSDPMSQSVADLPPKLQKMAGGPTRMEGNLPAKLRKMNSDRFT [T407C] | – | disrupting interaction | decreasing interaction | – | –
MSALRRKFGDDYQVVTTSSSGSGLQPQGPGQGPQQQLVPKKKRQRFVDKNGRCNVQHGNLGSETSRYLSDLFTTLVDLKWRWNLFIFILTYTVAWLFMASMWWVIAYTRGDLNKAHVGNYTPCVANVYNFPSAFLFFIETEATIGYGYRYITDKCPEGIILFLFQSILGSIVDAFLIGCMFIKMSQPKKRAETLMFSEHAVISMRDGKLTLMFRVGNLRNSHMVSAQIRCKLLKSRQTPEGEFLPLDQLELDVGFSTGADQLFLVSPLTICHVIDAKSPFYDLSQRSMQTEQFEVVVILEGIVETTGMTCQARTSYTEDEVLWGHRFFPVISLEEGFFKVDYSQFHATFEVPTPPYSVKEQEEMLLMSSPLIAPAITNSKERHNCVECLDGLDDISTKLPSKLQKITGREDFPKKLLRMSSTTSEKAYSLGDLPMKLQRISSVPGNSEEKLVSKTTKMLSDPMSQSVADLPPKLQKMAGGPTRMEGNLPAKLRKMNSDRFT [S385C] | – | – | – | disrupting interaction | decreasing interaction
